Laboratory results from doi:10.1101/2020.12.10.419135.

Target: Recombinant human glutamine synthetase (GS) (human) (UniProt P15104)
Test: MST

Chain of UniProt P15104 (P15104 whole entry): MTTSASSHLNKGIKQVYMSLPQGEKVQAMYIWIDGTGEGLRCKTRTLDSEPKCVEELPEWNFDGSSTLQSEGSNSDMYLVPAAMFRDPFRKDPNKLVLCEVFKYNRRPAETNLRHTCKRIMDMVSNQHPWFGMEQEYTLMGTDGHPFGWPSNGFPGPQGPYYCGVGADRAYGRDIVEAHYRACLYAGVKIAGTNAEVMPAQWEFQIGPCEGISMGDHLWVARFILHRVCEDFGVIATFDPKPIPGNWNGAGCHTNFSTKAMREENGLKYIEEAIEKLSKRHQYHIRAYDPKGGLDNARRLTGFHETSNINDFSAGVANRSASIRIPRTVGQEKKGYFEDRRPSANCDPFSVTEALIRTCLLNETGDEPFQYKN

Substance contryphan-Bt (peptide) has a Kd of 74 µM.
